Experimental data from PMC2175169 (The Journal of Cell Biology, 2000).

Biological target: authentic E1A 243R protein, purified from bacteria (adenovirus, UniProt P03255-2 1-243)
Test: pull-down

B1: GST-p21 Δ1-80 (domain or fragment)
chain: TGPRRGRDELGGGRRPGTSPALLQGTAEEDHVDLSLSCTLVPRSGEQAEGSPGGPGDSQGRKRRQTSMTDFYHSKRRLIFSKRKP
B1: binds.
